{"source": "paper PMC10987540", "about": "“Biogenesis of Rab14-positive endosome buds at Golgi–endosome contacts by the RhoBTB3–SHIP164–Vps26B complex” (Cell Discovery, 2024)", "biological_target": "T1, GST-SHIP164-CT (residues 1063–1364) (UniProt A0JNW5 1063-1364)", "T1 construct": "SHIP164, fragment of the C-terminal region, residues 1063-1364; also called purified SHIP164-CT fragment (residues 1063–1364); source: TSsetta (DE3) cells, purified (GST-tag resin)", "T1 sequence (A0JNW5 1063-1364)": "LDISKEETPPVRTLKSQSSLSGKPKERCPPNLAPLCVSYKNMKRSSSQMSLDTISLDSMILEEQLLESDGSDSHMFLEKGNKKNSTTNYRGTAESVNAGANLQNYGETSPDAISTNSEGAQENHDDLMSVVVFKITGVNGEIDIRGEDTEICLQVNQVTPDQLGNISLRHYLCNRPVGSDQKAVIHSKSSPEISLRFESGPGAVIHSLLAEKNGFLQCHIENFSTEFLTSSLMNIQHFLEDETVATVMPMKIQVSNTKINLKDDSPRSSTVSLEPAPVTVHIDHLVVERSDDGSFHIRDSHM", "assay": "pull-down; GST pull-down: purified GST protein on GST tag resin, His fusion protein added, 12 h at 4 °C, HNM buffer (20 mM HEPES pH 7.4, 100 mM NaCl, 5 mM MgCl2, 1 mM DTT, 0.2% NP-40); blot with anti-GST or His antibodies", "conditions": "both partners purified"}
{"binder": "His-Vps26B-NT (residues 1–160) (domain or fragment, UniProt Q4G0F5 1-160, looked up, Vps26B N-terminal region, residues 1-160; also called His-Vps26B NT region; purified Vps26B-NT fragment; source: TSsetta (DE3) cells, purified (Ni-NTA resin)) MSFFGFGQSVEVEILLNDAESRKRAEHKTEDGKKEKYFLFYDGETVSGKVSLALKNPNKRLEHQGIKIEFIGQIELYYDRGNHHEFVSLVKDLARPGEITQSQAFDFEFTHVEKPYESYTGQNVKLRYFLRATISRRLNDVVKEMDIVVHTLSTYPELNS", "values": [{"measurement": "binding result", "value": "binds"}]}
